Target: hepatitis A virus (HAV) particles (hepatitis A virus)
Assay: cell-based or functional assay

D1muc-Fc fusion protein (IgVmuc-hIg)
HAV infectivity (neutralization): 2 logs

Source: patent US20030124114A1
